Experimental data: US20170051285A1, “COMPOSITIONS AND METHODS OF USING SAME FOR REDUCING RESISTANCE TO MOSQUITO LARVICIDES” (priority 2014, published 2017)
Entries after “also recorded” stand apart in the source; their conditions may differ. Where two headings read alike, the source gives them in different places.

Legend:
Format in all cases: in vivo, Aedes aegypti
[1] = tested on: Ae. aegypti larvae (Rockefeller and Rio de Janeiro strains); assay: Temephos larval susceptibility bioassay (WHO methodology)
Procedure: (§1) First (L1), Second (L2) or Third (L3) instar larvae were treated (in groups of 100 larvae) in a final volume of 3 mL of autoclaved water with sodium channel (AAEL008297), PgP (AAEL010379), Ago3 (AAEL007823), and Aub (AAEL007698) dsRNA (0.5 μg/μL), or AAEL005112, AAEL003446, AAEL007815 and AAEL002202 dsRNA (0.1 μg/μL). The control group was kept in 3 ml sterile water only. Larvae were soaked in the dsRNA solutions for 24 hours at 27° C., and were then transferred into new containers (200 larvae/1000 mL of chlorine-free tap water), which were also maintained at 27° C., and provided […] lab dog/cat diet (Purina Mills) suspended in water as a source of food on a daily basis. After soaking procedure, the larvae were reared until third instar and divided in […] with 10-20 larvae in each cup (final volume of 100 mL) or were divided immediately after soaking. Six replicas were treated with the lethal concentration 50 (0.00573 ppm) of temephos and 2 replicas with ethanol only (control group). Mortality was recorded after 24 and 48 hours. See Flowcharts 1 and 2 (FIGS. 1 and 2, respectively).
Susceptibility tests were carried out according to the methodology proposed by the World Health Organization (WHO). In order to characterize the status of Temephos resistance in Ae. aegypti (Rio de Janeiro) strain, the present inventors first determined the lethal concentration LC99 (concentration able to kill 99% of the larvae) using the susceptible strain (Rockfeller) (see FIG. 5: 0.01401 ppm). Then, bioassays with the Rio de Janeiro strain were performed using a diagnostic concentration of 0.0282 ppm of Temephos, which corresponded to twice the lethal concentration, 99% (LC99), determined for this susceptible strain. According to WHO, when the field population is treated with the diagnostic dose and the mortality rates are equal to or higher than 98%, the population is considered susceptible, between 80% and 98%, with alterations in susceptibility, and below 80%, resistant [WHO (1981) WHO/VBC/81.807]. […]

[2] = tested on: Ae. aegypti female mosquitoes (Rockefeller and Rio de Janeiro strains); assay: CDC bottle bioassay with deltamethrin, adult females; conditions: 2 μg/mL deltamethrin; for mortality at 2 µg/mL: Aedes aegypti, read-out: mortality at diagnostic dosage
Procedure: FIGS. 14A-C are graphs illustrating the dose-response curves for 3- to 5-day-old Aedes aegypti female mosquitoes on insecticide-susceptible Rockefeller strain (FIG. 14A) and on insecticide-resistant Rio de Janeiro strain (FIG. 14B). Mosquitoes were exposed to different concentrations of deltamethrin in 250-mL glass bottles for up to 24 hours and the percentage of mortality for each time point is shown. FIG. 14C, comparison of the mortality rates of female mosquitoes from Rockefeller (Rock) and Rio de Janeiro (RJ) strains exposed to 2 μg/mL of deltamethrin for different time-points. Data represent mean values of three replicates with standard deviation.
Bottles were prepared following the Brogdon and McAllister (1998) protocol [Brogdon and McAllister (1998) Emerg Infect Dis 4:605-613]. Fifteen-twenty non-blood-fed females from each site were introduced in 250 mL glass bottles impregnated with different concentrations of deltamethrin (Sigma-Aldrich) in 1 ml acetone. Each test consisted of four impregnated bottles and one control bottle. The control bottle contained acetone with no insecticide. At least three tests were conducted for each insecticide and population. Immediately prior to use, all insecticide solutions were prepared fresh from stock solutions. At 15, 30 and 45 min intervals, the number of live and dead mosquitoes in each bottle was recorded. The mortality criteria included mosquitoes with difficulties flying or standing on the bottle's surface. Mosquitoes that survived the appropriate dose for insecticide were considered to be resistant [Brogdon and McAllister (1998), supra].
Therefore, it was concluded that 36.05% of the mosquitoes in this population (RJ) are resistant to deltamethrin.

[3] = tested on: P-glycoprotein (AAEL010379) mRNA; assay: qPCR of P-glycoprotein mRNA after dsRNA treatment of larvae
Procedure: as §1
(§2) Approximately 1000 ng first-strand cDNA obtained as described previously was used as template. The qPCR reactions were performed using SYBR® Green PCR Master Mix (Applied Biosystems) following the manufacturer's instructions. […] Raw quantification cycle (Cq) values normalized against those of the tubulin and S7 standards were then used to calculate the relative expression levels in samples using the 2^−ΔΔCt method previously described [Livak & Schmittgen (2001) Methods. […]
(§3) Approximately 1000 ng first-strand cDNA obtained as described previously was used as template. […] Raw quantification cycle (Cq) values normalized against those of the tubulin and S7 standards were then used to calculate the relative expression levels in samples using the 2^−ΔΔCt method [Livak & Schmittgen, (2001) Methods. […]

[4] = tested on: A. aegypti 3rd instar larvae, Rockefeller strain; assay: Larvae feeding with food-containing dsRNA and bioassay with diflubenzuron; conditions: diflubenzuron 2.5 μg/L
Procedure: FIG. 9A, 3rd instar larvae of Rockefeller strain were exposed to diflubenzuron (DBZ) pestanal larvicide (2.5 μg/L) in plastic cups containing 100 mL of dechlorinated tap water and fed simultaneously with dsRNA-containing food. Larval mortality was determined each 3 days. FIG. 9B, larvae were soaked with Sodium channel dsRNAs and exposed to diflubenzuron as described in FIG. 9A. Effects of diflubenzuron on adult emergence is shown as the percentage of emergence inhibition (100-100(T/C), where T is emergence (%) in DBZ-treated groups and C is emergence (%) in control groups. *p<0.01 (ANOVA, bar=S.D, n=4).
3rd instar larvae of Rockefeller strain were exposed to diflubenzuron (DBZ) pestanal larvicide (2.5 μg/L) in plastic cups containing 100 mL of dechlorinated tap water and fed simultaneously with dsRNA-containing food targeting PgP (FIG. 10A) or dsRNA-containing food targeting Sodium channel (FIG. 10B). Larval mortality was determined each 3 days. […]
Third instar larvae (in groups of 10 larvae) were exposed to one concentration (2.5 μg/L) of diflubenzuron pestanal (Sigma) in a final volume of 100 mL of chlorine-free tap water. […] The inhibition of emergence (%) was calculated according to the following formula: 100-100(T/C) where T is percent emergence in treated groups and C is percent emergence in control groups [Mulla et al. (1974) Proc. Papers Calif. […]

[5] = tested on: Argonaute-3 (AAEL007823) mRNA; assay: qPCR of Ago-3 mRNA after dsRNA treatment of larvae
Procedure: as §1, §2, §3

[6] = 24 and 48 hours after end of 24 hour soaking of 3rd instar larvae
[7] = soaked as third instar larvae, reared until adult stage

Question: What does the source list for COP(=S)(OC)Oc1ccc(Sc2ccc(OP(=S)(OC)OC)cc2)cc1 [Temephos]?
Answer: mortality at 0.0282 ppm ([1]; Aedes aegypti, read-out: mortality at diagnostic concentration): 60%; lethal concentration 50 ([1]; LC50 used to treat third instar larvae, strain not stated): 0.00573 ppm; lethal concentration LC99 (concentration able to kill 99% of the larvae) ([1]; susceptible strain (Rockfeller)): 0.01401 ppm

Question: Which mortality at 2 µg/mL ([2]; Rio de Janeiro strain) does the source give for CC1(C)[C@H](C(=O)O[C@H](C#N)c2cccc(Oc3ccccc3)c2)[C@@H]1C=C(Br)Br [deltamethrin] here?
Answer: The mortality at 2 µg/mL was 64%.

Question: What about the mortality at 2 µg/mL ([2]; Rockfeller strain) of the same molecule?
Answer: The mortality at 2 µg/mL was 100%.

Question: And the “mosquitoes of the population resistant to deltamethrin” value ([2]; Rio de Janeiro (RJ) population)?
Answer: Its value is 36.05%.

B1: P-glycoprotein dsRNA: dsRNA targeting Ae. aegypti P-glycoprotein gene AAEL010379, SEQ ID NO: 184 (nucleic acid)
chain: TGGAAAAGTTGACATTGACGGGATCACGACAACTGATTTCCAGCTTGGCCGCATACGTTCACAAATGGGTCTCGTATCGCAAGAACCTGTTCTGTTTGATCGCACCATCGCGGAAAATATTGCTTATGGTGACAACACTCGCGAGATAAGCATGCCGGAGATAATCGAGGCATCCAAAATGGCAAACATTCACGAATTCATCGTCAATCTACCGAAGGGGTATGACACTAGCCTAGGAACCAAAGGAGCTCAATTGTCTGGTGGCCAAAAGCAACGTATTGCTATAGCTCGTGCTTTGGTTAGAAATCCACGAATCC
modifications: double stranded RNA
Question: How did the “PgP mRNA levels after the end of dsRNA treatment (FIG. 19A)” value [3, 6] turn out when B1 was run?
Answer: The value was “decreased mRNA levels”.

Question: And the “P-glycoprotein mRNA expression by qPCR (FIG. 7)” value ([3]; larvae soaked 24 hours in dsRNA, temephos bioassay at third instar, versus water)?
Answer: The value was “induced gene silencing; also recorded: decrease in mRNA expression level”.

Question: And the “PgP mRNA expression in adult mosquitoes (FIG. 20A)” value [3, 7]?
Answer: The value was “reached normal levels”.

Question: What about the “viability of mosquito larvae 4 days after treatment with DBZ (FIGS. 10A-B)” value ([4]; fed agarose cubes with 20 μg dsRNA once a day for 4 days) of the same molecule?
Answer: The value was “reduced significantly the viability of mosquito larvae”.

Question: And the “susceptibility to diflubenzuron: larvae mortality and adult emergence (FIGS. 9A-B)” value ([4]; fed dsRNA-containing food simultaneously)?
Answer: Its value is “increases its susceptibility to diflubenzuron insecticide”.

B2: Ago-3 dsRNA: dsRNA targeting Ae. aegypti Argonaute-3 gene AAEL007823, SEQ ID NO: 185 (nucleic acid)
chain: CCCCGTCGACGGCCACGAAGTTACGATCAAGATCATTTACAAGCGCAAACAGCGAATGAGCGAGAACATTCAATTCTACAACATTCTCTTCCAACGCATTATGAAAGTCCTGAAGATGGTCGAGATGGGTCGTAAGAACTTTGACCCCTCGGCCCCGAAACTGATTCCGCAGCATCGTCTGGAGATCTGGCCGGGATACGTTAGCGCTGTGGACGAATATGAGGGCGGCTTGATGTTGAATCTCGACGTGTCCCATCGTGTGCTGCTCCAGACGACGGTTTTGGATCACATCCGAACGCTGGCAAGGGCCAATCCCCAAGATTACAAAAACATGGCCACCAAATCGCTGCTGGGAGCCGTTATATTGACCCGA
modifications: double stranded RNA
Question: For B2, which “Ago3 mRNA levels after the end of dsRNA treatment (FIG. 19B)” value [5, 6] is on record?
Answer: The value was “decreased mRNA levels”.

Question: What about the “Ago-3 mRNA expression by qPCR (FIG. 8B)” value ([5]; RJ third instar larvae soaked 24 hours, after treatment with Temephos, versus water) of the same molecule?
Answer: The value was “induced gene silencing; also recorded: reduction in the mRNA levels”.

Question: What about the “Ago3 mRNA expression in adult mosquitoes (FIG. 20B)” value [5, 7] of the same molecule?
Answer: Its value is “reached normal levels”.
